Values joined by “and” are separate entries in the source; they are usually repeats but may differ in a detail not shown here. Equal entries are not always repeated.
Conditions: Bos taurus, Fluorescence, whole UniProt chain shown; for denaturant m value / denaturant midpoint (higher = more stable) / unfolding free energy: 25 °C, GdnHCl, CaCl2 20 mM
[1] = pH 4.2, Thermal, acetate 30 mM, reversible: yes
[2] = pH 7.5, Tris-HCl 0.1 M, reversible: no
[3] = pH 8.3, Tris-HCl 0.1 M, reversible: no
[4] = pH 5.8, MES 30 mM, reversible: yes

B1: Serine protease 1 wild type, P00760 (protein)
chain: MKTFIFLALLGAAVAFPVDDDDKIVGGYTCGANTVPYQVSLNSGYHFCGGSLINSQWVVSAAHCYKSGIQVRLGEDNINVVEGNEQFISASKSIVHPSYNSNTLNNDIMLIKLKSAASLNSRVASISLPTSCASAGTQCLISGWGNTKSSGTSYPDVLKCLKAPILSDSSCKSAYPGQITSNMFCAGYLEGGKDSCQGDSGGPVVCSGKLQGIVSWGSGCAQKNKPGVYTKVCNYVSWIKQTIASN
**Q.** For B1, which Tm [1] is on record?
**A.** 66 °C and 65 °C

**Q.** What about the “heat capacity change of unfolding” value [1] of the same protein?
**A.** 3.09 kcal/mol/K and 2.64 kcal/mol/K

**Q.** What about the “unfolding enthalpy (van 't Hoff)” value [1] of the same protein?
**A.** 150 kcal/mol and 164 kcal/mol

**Q.** And the denaturant m value [2]?
**A.** 4.22 kcal/mol/M

**Q.** And the “denaturant midpoint (higher = more stable)” value [2]?
**A.** 2.5 M

**Q.** What about the unfolding free energy [2] of the same protein?
**A.** 10.6 kcal/mol

**Q.** And the denaturant m value [3]?
**A.** 4.1 kcal/mol/M

**Q.** What about the “denaturant midpoint (higher = more stable)” value [3] of the same protein?
**A.** 2.27 M

**Q.** What about the unfolding free energy [3] of the same protein?
**A.** 9.3 kcal/mol

B2: Anionic trypsin wild type, Q29463 (protein)
chain: MHPLLILAFVGAAVAFPSDDDDKIVGGYTCAENSVPYQVSLNAGYHFCGGSLINDQWVVSAAHCYQYHIQVRLGEYNIDVLEGGEQFIDASKIIRHPKYSSWTLDNDILLIKLSTPAVINARVSTLLLPSACASAGTECLISGWGNTLSSGVNYPDLLQCLVAPLLSHADCEASYPGQITNNMICAGFLEGGKDSCQGDSGGPVACNGQLQGIVSWGYGCAQKGKPGVYTKVCNYVDWIQETIAANS
**Q.** What does the source list for B2?
**A.** denaturant m value [4]: 5.74 kcal/mol/M; denaturant midpoint (higher = more stable) [4]: 2.19 M; unfolding free energy [4]: 12.5 kcal/mol

Source: FireProtDB (doi:10.1006/jmbi.1995.0174)
